According to the Human Domainome abundance scans (Beltran et al. 2025):

B1: Death-inducer obliterator 1, residues 263 to 321; numbered along this chain, Q9BTC0 (parent)
chain: GYDPNALYCICRQPHNNRFMICCDRCEEWFHGDCVGISEARGRLLERNGEDYICPNCTI

Variants of: B1
Test: abundance fitness (aPCA) (normalised: wild type 0, dead -1); higher = more abundant; growth selection in yeast, the domain comes from the species named
Conditions: Homo sapiens

Abundance fitness, by site and new letter:
D3: N 0.155 | H 0.111 | V -0.177 | K 0.123 | P 0.135 | Y 0.002 | F 0.025 | W -0.163 | M 0.199 | G -0.243 | Q -0.004 | R -0.049 | L -0.024 | I -0.007 | S 0.174 | T 0.023 | E 0.043 | C -0.048 | A -0.735
A6: N 0.041 | K -0.412 | E -0.328 | M 0.102 | Y -0.806 | T -0.07 | R -0.419 | F -0.198 | G -0.306 | I -0.279 | L -0.33 | S -0.511 | D -0.434 | P -0.471 | W -0.569 | Q -0.105 | V -0.066
Y8: D 0.135 | I 0.165 | R 0.115 | N 0.192 | S 0.125 | L 0.048 | C 0.069 | E 0.038 | M 0.07 | P 0.059 | Q -0.019 | T 0.264 | K 0.115 | F 0.035 | V 0.041 | W -0.154 | H 0.03
I10: Q -0.182 | A -0.084 | L -0.105 | N 0.011 | M 0.035 | T 0.017 | E -0.143 | H 0.105 | K -0.064 | G -0.217 | S 0.018 | D -0.418
L7: F 0.042 | H 0.119 | P -0.119 | C -0.062 | K -0.012 | M 0.1 | R 0.008 | I 0.106 | D -0.415 | W -0.055 | N 0.009 | G 0.086 | Y 0.002 | Q 0.026 | E 0.032 | T -0.006
G1: P -0.104 | D 0.181 | R -0.134 | M -0.144 | F 0.058 | Q -0.167 | Y 0.132 | W -0.336 | S 0.199 | C 0.138 | V 0.323 | I 0.16 | N 0.109 | L 0.266
N5: P -0.796 | S -0.259 | L -0.331 | Q -0.112 | R -0.211 | K -0.23 | F -0.189 | I -0.242 | A -0.413 | T -0.319 | Y -0.623 | E -0.184 | D 0.004 | W -0.793 | M -0.113 | C -0.497 | H -0.433 | V -0.186 | G -0.273
P4: W -0.086 | S 0.091 | T -0.147 | Q -0.043 | A -0.075 | H -0.062 | F 0.264 | I -0.14 | R 0.076 | C 0.063 | L 0.036 | G -0.122 | N -0.036 | K 0.297 | V -0.183 | Y -0.258 | D 0.354 | M 0.021 | E -0.213
Y2: G 0.165 | S 0.116 | H 0.156 | M 0.161 | R 0.211 | C 0.039 | P 0.102 | Q 0.161 | I 0.298 | L 0.342 | F 0.351 | A -0.03 | D -0.03 | V -0.112 | K 0.191 | N 0.269 | E 0.347
C9: K -1 | G -0.535 | M -0.606 | N -1.01 | F -0.659 | E -0.664 | R -0.534 | P -0.877 | L -0.813 | A -0.636 | I -0.823 | V -0.552 | Y -0.763 | Q -0.495 | S -0.859 | T -0.743 | W -0.543
